Like-named read-outs stand apart in the source and are kept apart here.
Tests used:
Stability in buffer = format: physicochemical; details: HPLC peak area in percentage
Description: 0.15 mg of the test compound are solved in 0.1 ml dimethylsulfoxide and 0.4 ml acetonitrile. For complete dissolution the HPLC vial with the sample solution is shaken and sonicated. Then 1.0 ml of the respective buffer solution is added, and the sample is vortexed. The sample solution is analysed by HPLC to determine the amount of the test compound and up to two byproducts at a particular time over a period of 24 h at 37° C. to values result from a sample immediately taken after vortexing with buffer at RT. The peak areas (in percentage) are used for quantification.

[1] = Pharmacokinetics in rat after intravenous administration; format: in vivo; details: plasma, male rats, intravenous bolus 0.5 mg/kg; for clearance: read-out: CL plasma; for Vd: read-out: VSS
Description: Male rats (n=3) were given an intravenous 0.5 mg/kg bolus dose of test article dissolved in plasma with 1% DMSO and 2% ethanol. Serial blood samples were collected up to 24 hours post-dose. Plasma was harvested from blood samples and stored frozen until sample analysis. Test article plasma concentrations were analyzed by LC/MS/MS. Pharmacokinetic parameters were calculated using non-compartmental analysis.

human Elastase = target: T1, human Elastase (Homo sapiens, UniProt P08246); experiment: Elastase cleavability test; format: biochemical; details: 5 μM test compound, 1 h at 37° C.
T1 sequence (P08246 30-267): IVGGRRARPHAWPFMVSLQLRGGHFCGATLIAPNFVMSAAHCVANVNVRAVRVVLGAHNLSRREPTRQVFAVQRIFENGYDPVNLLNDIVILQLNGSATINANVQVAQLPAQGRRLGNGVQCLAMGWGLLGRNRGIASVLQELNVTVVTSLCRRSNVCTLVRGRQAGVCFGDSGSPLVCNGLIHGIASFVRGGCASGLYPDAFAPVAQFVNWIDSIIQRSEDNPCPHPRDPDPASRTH
Description: The test compound was added to buffer (150 mM NaCl, 10 mM CaCl2, 0.05% BSA) to a final concentration of 5 μM (0.5% DMSO). The reaction was started by adding different concentrations of human Elastase (0, 20, 40, 60 nM) to the reaction vials. After incubation for 1 h at 37° C., the enzymatic reaction was stopped by precipitation in 50% ACN. Subsequently, the samples were subjected to HPLC-MS analysis to determine the concentration of test compound and of its metabolite.

Stability in rat plasma = format: in vitro ADME; details: 37° C., percent area of the initial compound at t0 (HPLC), read-out: Stability rat plasma after 4 h
Description: (§1) 1 mg of the respective test compound of is dissolved in a mixture of 1.5 mL dimethylsulfoxide and 1 ml water. For complete dissolution, the HPLC vial is shaken and treated with an ultrasound. 500 μl of this solution is added to 0.5 mL of plasma with vortexing at a temperature of 37° C. Aliquots (10 μL each) are taken at respective time points and analyzed by HPLC to determine the amount of the test compound. All data is given as percent area of the initial compound at to.

[2] = Stability in human plasma; format: in vitro ADME; details: 37° C., percent area of the initial compound at t0 (HPLC), read-out: Stability human plasma after 4 h
Description: as §1

NCI-H292 = experiment: Cytotoxicity in vitro in the presence and absence of elastase (MTT assay); format: cell-based; details: NCI-H292 cells, 72 h incubation
Summary of the method: (§2)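 Two matched triplicate sets were dosed 24 h post-seeding, one with compound only and one with compound plus 10 nM NE, over 10^−5 to 10^−13 M for 72 h. Proliferation was measured by MTT at 570 nm. In the automated version, AC50 came from a 4-parameter Hill fit, normalized to cell-free medium (−100%) and DMSO (0%).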

HT29 = experiment: as above; format: cell-based; details: HT29 cells, 72 h incubation
Summary of the method: as §2

SUM149PT = experiment: as above; format: cell-based; details: SUM149PT cells, 72 h incubation
Summary of the method: as §2

786-O = experiment: as above; format: cell-based; details: 786-O cells, 72 h incubation
Summary of the method: as §2

[3] = buffer pH 4, 37° C., read-out: Stability buffer pH 4 after 24 h
[4] = buffer pH 7.4, 37° C., read-out: Stability buffer pH 7.4 after 24 h
[5] = compound alone, read-out: IC50 without neutrophil elastase
[6] = with 10 nM elastase (NE), read-out: IC50 with neutrophil elastase

| Structure (SMILES) | remaining at 24 h, 0.1 mg/mL (Stability in buffer; [3]) [%] | remaining at 24 h, 0.1 mg/mL (Stability in buffer; [4]) [%] | AUC [1] [ng·h/mL] | half-life [1] [h] | clearance [1] [mL/min/kg] | Vd [1] [L/kg] | Payload release after 1 h (human Elastase; Elastase Concentration 0 nM) | Payload release after 1 h (human Elastase; Elastase Concentration 20 nM) | remaining at 4 h, 0.2 mg/mL (Stability in rat plasma) [%] | remaining at 4 h, 0.2 mg/mL [2] [%] | IC50 (NCI-H292; [5]) [nM] | IC50 (NCI-H292; [6]) [nM] | IC50 (HT29; [5]) [nM] | IC50 (HT29; [6]) [nM] | IC50 (SUM149PT; [5]) [nM] | IC50 (SUM149PT; [6]) [nM] | Stability buffer pH 7.4 after 24 h (Stability in buffer; buffer pH 7.4, 37° C.) [%] | IC50 (786-O; [5]) [nM] | IC50 (786-O; [6]) [nM] |
| --- | --- | --- | --- | --- | --- | --- | --- | --- | --- | --- | --- | --- | --- | --- | --- | --- | --- | --- | --- |
| CCCNC(=O)Nc1cccc(S(=O)(=O)Nc2cccc([C@@H](CC(=O)O)NC(=O)Nc3ccc(NC(=O)NCCOCCOCCOCCC(=O)N[C@@H](CC(=O)O)C(=O)N4CCC[C@H]4C(=O)N[C@H](C(=O)O[C@@H](c4ccccc4)[C@@H](C)NC(=O)[C@H](C)C(OC)[C@@H]4CCCN4C(=O)CC(OC)[C@H]([C@@H](C)CC)N(C)C(=O)[C@@H](NC(=O)[C@@H](NC)C(C)C)C(C)C)C(C)C)cc3)c2)c1 (some centres unmarked) [Compound 13] | 92 | 100 | 1000 to 10000 | 1 to 5 | 0.5 to 5 | 0.1 to 0.3 | D (D = <1%) | A (A = >70%) | 100 | 100 | – | – | – | – | – | – | – | – | – |
| CCCNC(=O)Nc1cccc(S(=O)(=O)Nc2cccc([C@@H](CC(=O)O)NC(=O)Nc3ccc(NC(=O)NCCOCCOCCOCCC(=O)N[C@@H](CC(=O)O)C(=O)N4CCC[C@H]4C(=O)N[C@H](C(=O)N[C@@H](CCN(C(=O)CO)[C@@H](c4cc(-c5cc(F)ccc5F)cn4Cc4ccccc4)C(C)(C)C)C(=O)NC)C(C)C)cc3)c2)c1 [Compound 26, disodium 1-[(2S)-2-(carboxylatomethyl)-17-{4-[({(1R)-2-carboxylato-1-[3-({3-[(propylcarbamoyl)amino]benzene-1-sulfonyl}amino)phenyl]ethyl}carbamoyl)amino]anilino}-4,17-dioxo-7,10,13-trioxa-3,16-diazaheptadecanan-1-oyl]-L-prolyl-N-[(2S)-4-[{(1R)-1-[1-benzyl-4-(2,5-difluorophenyl)-1H-pyrrol-2-yl]-2,2-dimethylpropyl}(hydroxyacetyl)amino]-1-(methylamino)-1-oxobutan-2-yl]-L-valinamide] | 94 | 100 | 1000 to 10000 | < 0.5 | 0.5 to 5 | 0.01 to 0.1 | D (D = <1%) | B (B = >20%) | 100 | 100 | > 1000 | 1 to 9.9 | > 1000 | 1 to 9.9 | > 1000 | 0.1 to 1 | – | – | – |
| CCCNC(=O)Nc1cccc(S(=O)(=O)Nc2cccc([C@@H](CC(=O)O)NC(=O)Nc3ccc(NC(=O)NCCOCCOCCOCCC(=O)N[C@@H](CC(N)=O)C(=O)N4CCC[C@H]4C(=O)N[C@H](C(=O)NCCCN(C(=O)CO)[C@@H](c4cc(-c5cc(F)ccc5F)cn4Cc4ccccc4)C(C)(C)C)C(C)C)cc3)c2)c1 [Compound 17, sodium N^2-(14-{4-[({(1R)-2-carboxylato-1-[3-({3-[(propylcarbamoyl)amino]benzene-1-sulfonyl}amino)phenyl]ethyl}carbamoyl)amino]anilino}-14-oxo-4,7,10-trioxa-13-azatetradecanan-1-oyl)-L-asparaginyl-L-prolyl-N-{3-[{(1R)-1-[1-benzyl-4-(2,5-difluorophenyl)-1H-pyrrol-2-yl]-2,2-dimethylpropyl}(hydroxyacetyl)amino]propyl}-L-valinamide] | 100 | – | 1000 to 10000 | 5 to 10 | 0.5 to 5 | 0.3 to 0.9 | D (D = <1%) | C (C = >1%) | 100 | 100 | 100 to 999 | 1 to 9.9 | > 1000 | 1 to 9.9 | 100 to 999 | 0.1 to 1 | 100 | > 1000 | 1 to 9.9 |
